US20210388087A1 (Chugai, published 2021)
Values belong to the binder of their own block, whether it stands above or below them. Where no end group is shown, it is not given here.

How the values were obtained:
[1] = target: T1, Human CD3eg linker (human); experiment: affinity relative to template H183/L072, single-mutation scan
T1 construct: Single chain: CD3 epsilon and gamma subunits joined by a 29-mer linker, Flag-tag at the C-terminus; also called recombinant human CD3
T1 chain: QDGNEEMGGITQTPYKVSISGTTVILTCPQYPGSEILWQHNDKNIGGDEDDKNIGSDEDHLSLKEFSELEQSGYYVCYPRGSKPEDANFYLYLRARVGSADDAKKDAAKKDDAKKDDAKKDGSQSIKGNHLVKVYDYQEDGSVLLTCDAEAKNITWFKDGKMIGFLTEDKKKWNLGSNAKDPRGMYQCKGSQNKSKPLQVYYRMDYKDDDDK

[2] = target: T2, Human CD137 ECD (human); experiment: SPR (Biacore), affinity of single-mutation variant against parental H183/L072
T2 construct: also called human CD137 extracellular domain; hCD137

[3] = target: T3, human CD137-Fc (human, biotin-labeled); experiment: bead ELISA, IgG on biotinylated antigen, luminescence;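 also: biotinylated antigen captured on streptavidin magnetic beads, then incubated with purified IgG at 50 ng/µL for 1 h at room temperature before detection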
T3 construct: if 90 already holds the Fc, drop the second piece; also called biotin-labeled human CD137 fused to human IgG1 Fc fragment; biotin-human CD137-Fc; not shown: human IgG1 Fc fragment

[4] = target: T4, cyno CD137-Fc (cynomolgus monkey; human, limits assumed, biotin-labeled); experiment: as above
T4 construct: whole entry 92 named; also called biotin-labeled cynomolgus monkey CD137 fused to human IgG1 Fc fragment; not shown: human IgG1 Fc fragment
T4 chain: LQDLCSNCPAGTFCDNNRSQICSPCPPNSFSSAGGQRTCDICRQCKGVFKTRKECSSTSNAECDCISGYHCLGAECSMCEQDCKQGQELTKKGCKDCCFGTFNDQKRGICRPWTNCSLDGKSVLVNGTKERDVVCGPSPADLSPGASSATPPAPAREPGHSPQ

[5] = target: T3, human CD137-Fc; experiment: bead ELISA on biotin-human CD137-Fc, 0 pmol free CD3e peptide
[6] = target: T5, Biotin-labeled CD3 epsilon peptide antigen (human, also: biotin-labeled, site not given here); experiment: bead ELISA, IgG on biotinylated CD3 epsilon peptide, luminescence
T5 construct: also called CD3 peptide
T5 peptide: QDGNEEMGGITQTPY

[7] = target: T3, human CD137-Fc; experiment: bead ELISA on biotin-human CD137-Fc, 125 vs 0 pmol free CD3e peptide;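 also: target captured on streptavidin-coated magnetic beads, signal read as fluorescence 2 min after adding APS-5 substrate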
[8] = target: T3, human CD137-Fc; experiment: bead ELISA on biotin-human CD137-Fc with 125 pmol/well free CD3e peptide as competitor;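 also: Streptavidin-coated magnetic beads in blocking buffer as the capture surface, well signal read as fluorescence 2 min after adding APS-5 substrate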

fold change of affinity for CD3 [1]: 0.7 fold
B1: H183/L072 with N53Y (Kabat) in VL dBBDu072L (antibody, name in Kabat numbering, V domains shown)
VH: QVQLVESGGGLVQPGRSLRLSCAASGFTFSNAWMHWVRQAPGKGLEWVAQIKDKGNAYAAYYAPSVKGRFTISRDDSKNSIYLQMNSLKTEDTAVYYCHYVHYASASTVLPAFGVDAWGQGTTVTVSS
VL: DIVMTQSPLSLPVTPGEPASISCQASQELVHMNRNTYLHWYQQKPGQAPRLLIYKVSYRFPGVPDRFSGSGSGTDFTLKISRVEAEDVGVYYCAQGTSVPFTFGQGTKLEIK
notes: Single-mutation variant of H183L072

fold change of affinity for CD137 [2]: 0.1 fold
B2: Dual-Fab H183/L072 variant with single light chain mutation V94Y (Kabat) (antibody, name in Kabat numbering, V domains shown)
VH: QVQLVESGGGLVQPGRSLRLSCAASGFTFSNAWMHWVRQAPGKGLEWVAQIKDKGNAYAAYYAPSVKGRFTISRDDSKNSIYLQMNSLKTEDTAVYYCHYVHYASASTVLPAFGVDAWGQGTTVTVSS
VL: DIVMTQSPLSLPVTPGEPASISCQASQELVHMNRNTYLHWYQQKPGQAPRLLIYKVSNRFPGVPDRFSGSGSGTDFTLKISRVEAEDVGVYYCAQGTSYPFTFGQGTKLEIK
notes: expressed as an antibody in Expi293 and purified on Protein A; also called dBBDu183H / dBBDu072L V94Y

fold change of affinity for CD3 [1]: 0.4 fold
B3: H183/L072 with F96Y (Kabat) in VL dBBDu072L (antibody, name in Kabat numbering, V domains shown)
VH: QVQLVESGGGLVQPGRSLRLSCAASGFTFSNAWMHWVRQAPGKGLEWVAQIKDKGNAYAAYYAPSVKGRFTISRDDSKNSIYLQMNSLKTEDTAVYYCHYVHYASASTVLPAFGVDAWGQGTTVTVSS
VL: DIVMTQSPLSLPVTPGEPASISCQASQELVHMNRNTYLHWYQQKPGQAPRLLIYKVSNRFPGVPDRFSGSGSGTDFTLKISRVEAEDVGVYYCAQGTSVPYTFGQGTKLEIK
notes: as for B1

fold change of affinity for CD3 [1]: 0.5 fold
B4: H183/L072 with A89Y (Kabat) in VL dBBDu072L (antibody, name in Kabat numbering, V domains shown)
VH: QVQLVESGGGLVQPGRSLRLSCAASGFTFSNAWMHWVRQAPGKGLEWVAQIKDKGNAYAAYYAPSVKGRFTISRDDSKNSIYLQMNSLKTEDTAVYYCHYVHYASASTVLPAFGVDAWGQGTTVTVSS
VL: DIVMTQSPLSLPVTPGEPASISCQASQELVHMNRNTYLHWYQQKPGQAPRLLIYKVSNRFPGVPDRFSGSGSGTDFTLKISRVEAEDVGVYYCYQGTSVPFTFGQGTKLEIK
notes: as for B1

fold change of affinity for CD137 [2]: 0 fold
B5: Dual-Fab H183/L072 variant with single light chain mutation P95Y (Kabat) (antibody, name in Kabat numbering, V domains shown)
VH: QVQLVESGGGLVQPGRSLRLSCAASGFTFSNAWMHWVRQAPGKGLEWVAQIKDKGNAYAAYYAPSVKGRFTISRDDSKNSIYLQMNSLKTEDTAVYYCHYVHYASASTVLPAFGVDAWGQGTTVTVSS
VL: DIVMTQSPLSLPVTPGEPASISCQASQELVHMNRNTYLHWYQQKPGQAPRLLIYKVSNRFPGVPDRFSGSGSGTDFTLKISRVEAEDVGVYYCAQGTSVYFTFGQGTKLEIK
notes: expressed as an antibody in Expi293 and purified on Protein A; also called dBBDu183H / dBBDu072L P95Y

fold change of affinity for CD137 [2]: 0 fold
B6: Dual-Fab H183/L072 variant with single light chain mutation P56Y (Kabat) (antibody, name in Kabat numbering, V domains shown)
VH: QVQLVESGGGLVQPGRSLRLSCAASGFTFSNAWMHWVRQAPGKGLEWVAQIKDKGNAYAAYYAPSVKGRFTISRDDSKNSIYLQMNSLKTEDTAVYYCHYVHYASASTVLPAFGVDAWGQGTTVTVSS
VL: DIVMTQSPLSLPVTPGEPASISCQASQELVHMNRNTYLHWYQQKPGQAPRLLIYKVSNRFYGVPDRFSGSGSGTDFTLKISRVEAEDVGVYYCAQGTSVPFTFGQGTKLEIK
notes: expressed as an antibody in Expi293 and purified on Protein A; also called dBBDu183H / dBBDu072L P56Y

fold change of affinity for CD137 [2]: 1.2 fold
B7: Dual-Fab H183/L072 variant with single light chain mutation S52Y (Kabat) (antibody, name in Kabat numbering, V domains shown)
VH: QVQLVESGGGLVQPGRSLRLSCAASGFTFSNAWMHWVRQAPGKGLEWVAQIKDKGNAYAAYYAPSVKGRFTISRDDSKNSIYLQMNSLKTEDTAVYYCHYVHYASASTVLPAFGVDAWGQGTTVTVSS
VL: DIVMTQSPLSLPVTPGEPASISCQASQELVHMNRNTYLHWYQQKPGQAPRLLIYKVYNRFPGVPDRFSGSGSGTDFTLKISRVEAEDVGVYYCAQGTSVPFTFGQGTKLEIK
notes: expressed as an antibody in Expi293 and purified on Protein A; also called dBBDu183H / dBBDu072L S52Y

fold change of affinity for CD137 [2]: 0.8 fold
B8: Dual-Fab H183/L072 variant with single light chain mutation S93Y (Kabat) (antibody, name in Kabat numbering, V domains shown)
VH: QVQLVESGGGLVQPGRSLRLSCAASGFTFSNAWMHWVRQAPGKGLEWVAQIKDKGNAYAAYYAPSVKGRFTISRDDSKNSIYLQMNSLKTEDTAVYYCHYVHYASASTVLPAFGVDAWGQGTTVTVSS
VL: DIVMTQSPLSLPVTPGEPASISCQASQELVHMNRNTYLHWYQQKPGQAPRLLIYKVSNRFPGVPDRFSGSGSGTDFTLKISRVEAEDVGVYYCAQGTYVPFTFGQGTKLEIK
notes: expressed as an antibody in Expi293 and purified on Protein A; also called dBBDu183H / dBBDu072L S93Y

RLU [3]: 14100 RLU | S/N ratio (human CD137-Fc/Fc) [3]: 6.58 | RLU [4]: 3350 RLU | S/N ratio (cyno CD137-Fc/Fc) [4]: 1.56 | ELISA signal [5]: 2700 | RLU [6]: 177000 RLU | S/N ratio (CD3 peptide/non coating) [6]: 148 | Signal decrease [7]: 30.2% | ELISA signal [8]: 1880
B9: DXDU01_3#072 (antibody, V domains shown)
VH: QVQLVESGGGLVQPGRSLRLSCAASGFTFSNAWMHWVRQAPGKGLEWVAQIKDRSQLYAAYYAPSVKGRFTISRDDSKNSIYLQMNSLKTEDTAVYYCHYVHYASASTVLGAYGVDAWGQGTTVTVSS
VL: DIVMTQSPLSLPVTPGEPASISCRSSQSLVHSNRNTYLHWYQQKPGQAPRLLIYKVSNRFSGVPDRFSGSGSGTDFTLKISRVEAEDVGVYYCGQGTQVPYTFGQGTKLEIK
notes: Human IgG1; light chain GLS3000 (kappa); also called dBBDu122
